{
  "source": "paper PMC9652377",
  "biological_target": "β-arrestin-2-YFP, P32121",
  "sequence (P32121 whole entry)": "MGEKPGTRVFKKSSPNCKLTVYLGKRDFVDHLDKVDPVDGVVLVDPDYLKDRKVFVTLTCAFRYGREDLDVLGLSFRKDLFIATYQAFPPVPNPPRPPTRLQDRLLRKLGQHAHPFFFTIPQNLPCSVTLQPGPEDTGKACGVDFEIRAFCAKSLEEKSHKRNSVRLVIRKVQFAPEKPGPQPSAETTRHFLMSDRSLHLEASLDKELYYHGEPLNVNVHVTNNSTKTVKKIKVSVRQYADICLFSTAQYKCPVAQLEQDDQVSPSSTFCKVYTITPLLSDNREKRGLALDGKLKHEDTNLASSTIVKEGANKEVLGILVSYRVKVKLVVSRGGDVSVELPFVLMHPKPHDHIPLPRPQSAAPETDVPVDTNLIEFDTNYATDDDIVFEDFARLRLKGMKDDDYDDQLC",
  "assay": "BRET (CXCR4-RLuc / βarr2-YFP) in HEK293T cells",
  "details": "chain shown with the change; CXCL12 1e-6 M (highest concentration of the curve), 15 min; coel-h 10 min; parent: est. 0.11; read off a plot",
  "data": [
    {"binder": "chemokine receptor CXCR4 WT, CXCR4-RLuc, P61073 V198F + V197M/V198W (protein) MEGISIYTSDNYTEEMGSGDYDSMKEPCFREENANFNKIFLPTIYSIIFLTGIVGNGLVILVMGYQKKLRSMTDKYRLHLSVADLLFVITLPFWAVDAVANWYFGNFLCKAVHVIYTVNLYSSVLILAFISLDRYLAIVHATNSQRPRKLLAEKVVYVGVWIPALLLTIPDFIFANVSEADDRYICDRFYPNDLWVMWFQFQHIMVGLILPGIVILSCYCIIISKLSHSKGHQKRKALKTTVILILAFFACWLPYYIGISIDSFILLEIIKQGCEFENTVHKWISITEALAFFHCCLNPILYAFLGAKFKTSAQHALTSVSRGSSLKILSKGKRGGHSSVSTESESSSFHSS", "values": [
      {"measurement": "response", "result": "0.09 ΔBRET"}
    ]}
  ]
}
